Results: PMC8423243
Where two headings read alike, the source gives them in different places.

Substance	other (N-glycosylation at N611)	other (N-glycosylation at N289)	other (N-glycosylation at N241)
BG505 Env (BG505 SOSIP trimer and BG505 T332N virus): N611A (virus)	increases	–	–
BG505 Env (BG505 SOSIP trimer and BG505 T332N virus): deletion of the N611 PNGS (N611A virus)	no change	–	–
BG505 Env P291T (virus) / P291S (SOSIP) variant: P291T (PNGS knock-in at N289; direction given for knock-in relative to parental BG505)	–	abolishes	–
BG505 Env P291T (virus) / P291S (SOSIP) variant: P291T and S241N + P291T (PNGS knock-ins; direction given for knock-in relative to parental BG505)	–	decreases	–
BG505 Env S241N variant (SOSIP and virus): S241N (PNGS knock-in; direction given for knock-in relative to parental BG505)	–	–	abolishes
BG505 Env S241N variant (SOSIP and virus): S241N + P291T (double PNGS knock-in; direction given for knock-in relative to parental BG505)	–	–	abolishes
